Our source for the Kd values is US20180126009A1 (SURGIMAB S A S, published 2018).

The target of test [1] is T1, carcinoembryonic antigen (UniProt P06731 35-685, limits assumed).
T1 construct: Antigen preparation used in the SPR assay; also called CEA
T1 sequence (looked up): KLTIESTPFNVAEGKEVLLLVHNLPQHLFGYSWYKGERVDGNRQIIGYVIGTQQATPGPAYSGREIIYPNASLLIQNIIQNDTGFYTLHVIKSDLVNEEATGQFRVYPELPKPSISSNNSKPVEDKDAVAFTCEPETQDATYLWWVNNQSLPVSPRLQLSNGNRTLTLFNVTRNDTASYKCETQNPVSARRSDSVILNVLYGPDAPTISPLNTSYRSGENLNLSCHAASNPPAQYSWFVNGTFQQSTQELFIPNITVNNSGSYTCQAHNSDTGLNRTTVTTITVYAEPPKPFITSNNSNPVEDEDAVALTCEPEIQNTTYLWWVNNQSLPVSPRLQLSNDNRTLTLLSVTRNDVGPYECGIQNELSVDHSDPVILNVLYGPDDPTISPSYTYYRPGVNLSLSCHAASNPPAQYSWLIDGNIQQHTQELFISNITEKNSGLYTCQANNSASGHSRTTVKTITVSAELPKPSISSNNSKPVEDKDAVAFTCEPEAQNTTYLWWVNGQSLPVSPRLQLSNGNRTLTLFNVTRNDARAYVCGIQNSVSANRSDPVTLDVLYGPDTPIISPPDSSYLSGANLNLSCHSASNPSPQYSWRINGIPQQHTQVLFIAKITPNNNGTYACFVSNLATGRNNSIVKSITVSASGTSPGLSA
The test is described as follows: SPR, BIACORE 3000, CEA thiol-coupled to CM5 chip, antibody in flow at 50 nM to 1.5 nM; chimeric antibody of Example 1, unlabelled. On the procedure:
(§1) The affinity of the fluorescent conjugate as prepared in Example 3 to the target carcinoembryonic antigen was also determined, using surface plasmon resonance (SPR) on a BIACORE 3000 device. Carcinoembryonic antigen was coupled to a CM5 chip via the thiol groups (Surface Thiol Coupling GE healthcare; Instruction 22-0618-10AB). Association and dissociation rates were measured using in the flow 6 different concentrations (from 50 nM to 1.5 nM) of the chimeric monoclonal antibody of Example 1, the monoclonal antibody m511 (the original murine antibody from which the variable regions the chimeric monoclonal antibody of Ex. 1 is based) and fluorescent conjugate. Data acquisition and parameters calculations were performed using the Bia software and Bia evaluation programs.
Background: In SPR one partner is held on a chip, and binding of the other changes the refractive index at the surface.

In test [2] the target is T1, carcinoembryonic antigen. Put plainly: SPR, BIACORE 3000, CEA thiol-coupled to CM5 chip, antibody in flow at 50 nM to 1.5 nM; parental murine antibody m511. On the procedure:
as §1

The target of test [3] is T1, carcinoembryonic antigen. Put plainly: SPR, BIACORE 3000, CEA thiol-coupled to CM5 chip, conjugate in flow at 50 nM to 1.5 nM; chimeric antibody labelled with the near-infrared dye (conjugate of Ex. 3). On the procedure: as §1

B1: anti-CEA chimeric monoclonal antibody of Example 1 (antibody, human IgG1, V domains shown)
VH: DVQLVESGGGLVQPGGSRKLSCAASGFTFSNFGMHWIRQAPEKGLEWVAYISGGSSTIYFADTLKGRFTISRDNPKNTLFLQMTSLRSEDTAIYYCARDYYINNYWYFDVWGAGTTVTVSS
VL: DIVMTQSQKFMSTSVGDRVSITCKASQNVRSAVAWYQQTPGQSPKALIYLASNRYTGVPDRFTGSGSGTDFTLTISNVQSEDLADYFCLQHWNYPLTFGGGTKLELK
notes: Expressed in CHO cells; 148.6 kDa by MALDI-TOF; also called chimeric mAb directed against CEA; anti-CEA chimeric mAb
Take B1: in the test with carcinoembryonic antigen [1], the affinity, expressed as Kd, was 0.0327 nM.

B2: monoclonal antibody m511 (antibody, V domains shown)
VH: DVQLVESGGGLVQPGGSRKLSCAASGFTFSNFGMHWIRQAPEKGLEWVAYISGGSSTIYFADTLKGRFTISRDNPKNTLFLQMTSLRSEDTAIYYCARDYYINNYWYFDVWGAGTTVTVSS
VL: DIVMTQSQKFMSTSVGDRVSITCKASQNVRSAVAWYQQTPGQSPKALIYLASNRYTGVPDRFTGSGSGTDFTLTISNVQSEDLADYFCLQHWNYPLTFGGGTKLELK
notes: Murine parental antibody; also called parental murine 511 antibody; original murine antibody
Turning to B2, in the test with carcinoembryonic antigen [2], the equilibrium dissociation constant (Kd) (as a rule, the concentration at which binding is half-saturated) was 0.0382 nM.

B3: fluorescent conjugate of Example 3 (anti-CEA chimeric mAb of Example 1 coupled to the fluorochrome of Formula (IV)) (antibody, V domains shown)
VH: DVQLVESGGGLVQPGGSRKLSCAASGFTFSNFGMHWIRQAPEKGLEWVAYISGGSSTIYFADTLKGRFTISRDNPKNTLFLQMTSLRSEDTAIYYCARDYYINNYWYFDVWGAGTTVTVSS
VL: DIVMTQSQKFMSTSVGDRVSITCKASQNVRSAVAWYQQTPGQSPKALIYLASNRYTGVPDRFTGSGSGTDFTLTISNVQSEDLADYFCLQHWNYPLTFGGGTKLELK
modifications: cyanine fluorochrome (NHS ester of Formula (IV), giving moiety F of formula (II)) coupled to the antibody; average fluorochrome/antibody molar ratio 1.5-1.6; sites of coupling not stated
notes: In the tissue cross-reactivity study the conjugate was also biotin labelled; also called conjugate of Ex. 3
Regarding B3, the equilibrium dissociation constant (Kd) with carcinoembryonic antigen [3] worked out at 0.0321 nM.
